Measurements taken from US20200399712A1, “COMPOSITIONS AND METHODS FOR THE DIAGNOSIS AND DETECTION OF TUMORS AND CANCER PROGNOSIS” (priority 2018, published 2020).

Legend:
[1] = system: E2, E4, E5 expression head and neck cell line; assay: Growth of E2, E4, E5 expressing head and neck cell line with FGFR inhibitor; format: cell-based
HPV-16 genome = assay: qPCR sensitivity against HPV-16 copy number (known-copy HPV-16 DNA among 10 ng normal human DNA); conditions: for reaction under 30 copies of HPV-16 genome: among 10 ng normal DNA, triplicate qPCR
HPV-16 [2] = assay: qPCR on 20 ng DNA from saliva samples of HPV-HNSCC patients
HPV16 DNA [3] = assay: CLIA test for HPV16, performance characteristics in plasma
From the text: (§1) These primer/probe sets were adapted for development of a CLIA test for HPV16 DNA detection in plasma and salivary rinses (Table 2). Test performance was improved, so that analytical sensitivity in salivary rinse spike in assays ranges from 2.5-5.0 DNA copies/mL with 100% specificity for the three primer/probe sets that are now part of the component assay, resulting in a five-fold improvement in analytic sensitivity that is in the range of sensitivity found in sequence based liquid biopsy methods (FIG. 23, Table 2). Additionally, the assays can be used quantitatively, with measuring ranges between 2.0 log10-7.0 log10 copies/mL.

HPV16 DNA [4] = assay: CLIA test for HPV16, performance characteristics in salivary rinse
From the text: as §1

HPV DNA = assay: CLIA HPV test pilot study on saliva rinse samples from HPV-positive HNSCC patients and non-cancer controls; parameters: species or system HPV16; HPV16 DNA measured by CLIA HPV test: unit not given here
Experimental: As a final validation, Applicants a small pilot study was performed on a blinded set of saliva rinse samples from 28 patients with HPV-positive HNSCC and 15 salivary rinses from non-cancer controls. […] The sensitivity increased to 96% when all three sets were used (Table 3).

HPV-16 [5] = assay: qPCR sensitivity against HPV-HNSCC tumor samples diluted among 10 ng normal human DNA
Experimental: Quantitative real-time polymerase chain reaction (qRT-PCR) was used to examine the threshold in each experiment. qRT-PCR was performed using Quant Studio 6 Flex Real-Time PCR System (Thermo Fisher Scientific). All samples were run in triplicates. HPV-16 viral amplicon copy number estimations were developed using the CaSki cell line. After amplification of the amplicon by PCR, DNA concentration was calculated by weight NanoDrop®, then converted to DNA copy number by calculation based on the molecular weight of the double stranded amplicon. […] In the other 32 HPV-HNSCC cohort, Applicants diluted the tumor sample to 990 pg, 198 pg, 99 pg, 39.6 pg, 7.9 pg, 3.2 pg, and 1.6 pg of amount tumor weight, (correspond to 150, 30, 15, 6, 1.2, 0.6, and 0.3 cells: assumption that 1 tumor cell have 6.6 pg DNA (=3*10^9 (human DNA genome bp)*2 (diploid)*1.67*10^(−24) g (weight/Dalton))) combined with 10 ng normal leukocyte human DNA and compare the threshold of each primer-probe sets.
In this regard, Applicants investigated the other 32 HPV-HNSCC tumor samples. From the assumption that 1 cell tumor DNA contain 6.6 pg DNA, Applicants made the dilution series by DNA derived from normal lymphocyte as described and decide the threshold for each primer-probe set.
Furthermore, to determine whether these designed primer/probe sets also have a high sensitivity in a separate cohort, Applicants performed PCR in a validation cohort of 32 additional primary tumor samples with validated presence of HPV-16. Applicants prepared serial of dilutions of tumor DNA in normal lymphocyte DNA from non-cancer individuals and determined the threshold for each primer/probe set and defined amplification thresholds expressed in number of tumor cells for each sample (Table 5).

[6] = samples tested 3 times, 10 ng DNA from healthy individual
[7] = first template ('... HPV16', word is an image)
[8] = second template (name is an image)
[9] = tumor DNA dilution, fraction of 32 samples

Molecule: AZD4547
- growth effect induced by E2, E4, E5 [1]: reversed the growth effect induced by E2, E4, E5

B1: HR E5L2-4: primer/probe set for junction between E5 and L2, SEQ ID NO: 55-57 (same as SEQ ID NO: 4-6) (nucleic acid)
DNA 1: GCAAAACGCACAAAACGTGC
DNA 2: GACATGTACCTGCCTGTTTGC
DNA 3: CGGCTACCCAACTTTATAAAACA
modifications: chemistry not given here
- reaction under 30 copies of HPV-16 genome (HPV-16 genome): consistently amplified
- reaction under 30 copies of HPV-16 genome (HPV-16 genome; listed as Max-10): react consistently
- number of reactions against 10 HPV-16 copies (HPV-16 genome; [6]): one
- number of reactions under 30 HPV-16 copies (HPV-16 genome; [6]): 3 reactions
- sensitivity of detection from saliva 20 ng DNA samples (HPV-16 [2]; 28 HPV-HNSCC saliva samples): 46.4%
- copy numbers detected (standard curve analysis) (HPV-16 [2]; compared among 4 primer-probe sets): highest
- Accuracy - Plasma Blind Panel, Negative % Agreement (HPV16 DNA [3]): 100%
- Accuracy - Plasma Blind Panel, Positive % Agreement (HPV16 DNA [3]): 100%
- Accuracy - Plasma Blind Panel, Total % Agreement (HPV16 DNA [3]): 100%
- Measuring Range - Plasma (HPV16 DNA [3]; first template ('... HPV16')): 2.0-8.5 log10 log10 copies/mL
- Limit of Detection - Plasma (HPV16 DNA [3]; [7]): 1.5 copies/mL
- Limit of Detection - Plasma (HPV16 DNA [3]; [8]): 20 copies/mL
- Measuring Range - Plasma (HPV16 DNA [3]; [8]): 2.0-6.5 log10 log10 copies/mL
- Measuring Range - Salivary Rinse (HPV16 DNA [4]; first template ('... HPV16')): 2.0-8.5log10 log10 copies/mL
- Limit of Detection - Salivary rinse (HPV16 DNA [4]; [7]): 2 copies/mL
- Limit of Detection - Salivary rinse (HPV16 DNA [4]; [8]): 19 copies/mL
- Measuring Range - Salivary Rinse (HPV16 DNA [4]; [8]): 2.0-6.5 log10 log10 copies/mL
- sensitivity for the detection of HPV DNA in saliva rinse samples (HPV DNA; 28 patients with HPV-positive HNSCC): 71%
- HPV16 DNA measured by CLIA HPV test (HPV DNA; saliva sample from HPV-HNSCC patient # 1): 322000
- HPV16 DNA measured by CLIA HPV test (HPV DNA; saliva sample from HPV-HNSCC patient # 2): 52500
- HPV16 DNA measured by CLIA HPV test (HPV DNA; saliva sample from HPV-HNSCC patient # 3): 25800
- HPV16 DNA measured by CLIA HPV test (HPV DNA; saliva sample from HPV-HNSCC patient # 4): 33200
- HPV16 DNA measured by CLIA HPV test (HPV DNA; saliva sample from HPV-HNSCC patient # 7): 9670
- HPV16 DNA measured by CLIA HPV test (HPV DNA; saliva sample from HPV-HNSCC patient # 8): 2510
- HPV16 DNA measured by CLIA HPV test (HPV DNA; saliva sample from HPV-HNSCC patient # 9): 1590
- HPV16 DNA measured by CLIA HPV test (HPV DNA; saliva sample from HPV-HNSCC patient # 12): 86.7
- HPV16 DNA measured by CLIA HPV test (HPV DNA; saliva sample from HPV-HNSCC patient # 13): 53.1
- HPV16 DNA measured by CLIA HPV test (HPV DNA; saliva sample from HPV-HNSCC patient # 14): 31.1
- HPV16 DNA measured by CLIA HPV test (HPV DNA; saliva sample from HPV-HNSCC patient # 15): 49.7
- HPV16 DNA measured by CLIA HPV test (HPV DNA; saliva sample from HPV-HNSCC patient # 16): 41.3
- HPV16 DNA measured by CLIA HPV test (HPV DNA; saliva sample from HPV-HNSCC patient # 17): 15.8
- HPV16 DNA measured by CLIA HPV test (HPV DNA; saliva sample from HPV-HNSCC patient # 18): 2.61
- HPV16 DNA measured by CLIA HPV test (HPV DNA; saliva sample from HPV-HNSCC patient # 19): 26.9
- HPV16 DNA measured by CLIA HPV test (HPV DNA; saliva sample from HPV-HNSCC patient # 20): 13.4
- HPV16 DNA measured by CLIA HPV test (HPV DNA; saliva sample from HPV-HNSCC patient # 21): 6.54
- HPV16 DNA measured by CLIA HPV test (HPV DNA; saliva sample from HPV-HNSCC patient # 22): 1.16
- HPV16 DNA measured by CLIA HPV test (HPV DNA; saliva sample from HPV-HNSCC patient # 26): 2.15
- HPV16 DNA measured by CLIA HPV test (HPV DNA; saliva sample from HPV-HNSCC patient # 27): 1.19
- sensitivity under 100 cells (HPV-16 [5]; 32 HPV-HNSCC tumor samples): 93.8%
- sensitivity under single cells (HPV-16 [5]; 32 HPV-HNSCC tumor samples, 6.6 pg DNA): 15.6%
- sensitivity under 10 cells (HPV-16 [5]; 32 HPV-HNSCC tumor samples, 66 pg DNA): 50.0%
- Threshold of tumor cell numbers for HPV-16 detection (HPV-16 [5]; Sample # 1): 30.0 tumor cells
- Threshold of tumor cell numbers for HPV-16 detection (HPV-16 [5]; Sample # 2): 30.0 tumor cells
- Threshold of tumor cell numbers for HPV-16 detection (HPV-16 [5]; Sample # 3): 150.0 tumor cells
- Threshold of tumor cell numbers for HPV-16 detection (HPV-16 [5]; Sample # 4): 60.0 tumor cells
- Threshold of tumor cell numbers for HPV-16 detection (HPV-16 [5]; Sample # 5): 150.0 tumor cells
- Threshold of tumor cell numbers for HPV-16 detection (HPV-16 [5]; Sample # 6): 30.0 tumor cells
- Threshold of tumor cell numbers for HPV-16 detection (HPV-16 [5]; Sample # 7): 30.0 tumor cells
- Threshold of tumor cell numbers for HPV-16 detection (HPV-16 [5]; Sample # 8): 15.0 tumor cells
- Threshold of tumor cell numbers for HPV-16 detection (HPV-16 [5]; Sample # 9): 30.0 tumor cells
- Threshold of tumor cell numbers for HPV-16 detection (HPV-16 [5]; Sample # 10): 30.0 tumor cells
- Threshold of tumor cell numbers for HPV-16 detection (HPV-16 [5]; Sample # 11): 6.0 tumor cells
- Threshold of tumor cell numbers for HPV-16 detection (HPV-16 [5]; Sample # 12): 30.0 tumor cells
- Threshold of tumor cell numbers for HPV-16 detection (HPV-16 [5]; Sample # 13): 30.0 tumor cells
- Threshold of tumor cell numbers for HPV-16 detection (HPV-16 [5]; Sample # 14): 30.0 tumor cells
- Threshold of tumor cell numbers for HPV-16 detection (HPV-16 [5]; Sample # 15): 30.0 tumor cells
- Threshold of tumor cell numbers for HPV-16 detection (HPV-16 [5]; Sample # 16): 6.0 tumor cells
- Threshold of tumor cell numbers for HPV-16 detection (HPV-16 [5]; Sample # 17): 6.0 tumor cells
- Threshold of tumor cell numbers for HPV-16 detection (HPV-16 [5]; Sample # 18): 6.0 tumor cells
- Threshold of tumor cell numbers for HPV-16 detection (HPV-16 [5]; Sample # 19): 1.2 tumor cells
- Threshold of tumor cell numbers for HPV-16 detection (HPV-16 [5]; Sample # 20): 1.2 tumor cells
- Threshold of tumor cell numbers for HPV-16 detection (HPV-16 [5]; Sample # 21): 6.0 tumor cells
- Threshold of tumor cell numbers for HPV-16 detection (HPV-16 [5]; Sample # 22): 0.3 tumor cells
- Threshold of tumor cell numbers for HPV-16 detection (HPV-16 [5]; Sample # 23): 1.2 tumor cells
- Threshold of tumor cell numbers for HPV-16 detection (HPV-16 [5]; Sample # 24): 1.2 tumor cells
- Threshold of tumor cell numbers for HPV-16 detection (HPV-16 [5]; Sample # 25): 0.6 tumor cells
- Threshold of tumor cell numbers for HPV-16 detection (HPV-16 [5]; Sample # 26): 0.6 tumor cells
- Threshold of tumor cell numbers for HPV-16 detection (HPV-16 [5]; Sample # 27): 0.6 tumor cells
- Threshold of tumor cell numbers for HPV-16 detection (HPV-16 [5]; Sample # 28): 1.0 tumor cells
- Threshold of tumor cell numbers for HPV-16 detection (HPV-16 [5]; Sample # 29): 3.0 tumor cells
- Threshold of tumor cell numbers for HPV-16 detection (HPV-16 [5]; Sample # 30): 30.0 tumor cells
- Threshold of tumor cell numbers for HPV-16 detection (HPV-16 [5]; Sample # 31): 0.6 tumor cells
- Threshold of tumor cell numbers for HPV-16 detection (HPV-16 [5]; Sample # 32): 30.0 tumor cells
- Sensitivity, 1 cell (HPV-16 [5]; [9]): 0.156
- Sensitivity, 3 cells (HPV-16 [5]; [9]): 0.313
- Sensitivity, 10 cells (HPV-16 [5]; [9]): 0.500
- Sensitivity, 30 cells (HPV-16 [5]; [9]): 0.844
- Sensitivity, 100 cells (HPV-16 [5]; [9]): 0.938
